Test results taken from patent US20110117017A1, “PEPTIDES WITH PROPERTIES OF AN […] FOR THE ALPHA 1A […] RECEPTOR AND USES THEREOF” (priority 2006, published 2011).
Where two headings read alike, the source gives them in different places.

Tests used:
[1] = target: alpha1a adrenergic receptor (expressed in Pichia pastoris, membranes)
[2] = target: alpha1d adrenergic receptor (expressed in Pichia pastoris, membranes)
[3] = target: beta1 adrenergic receptor (expressed in Pichia pastoris, membranes)
Chain of beta1 adrenergic receptor (expressed in Pichia pastoris, membranes) (P08588 whole entry): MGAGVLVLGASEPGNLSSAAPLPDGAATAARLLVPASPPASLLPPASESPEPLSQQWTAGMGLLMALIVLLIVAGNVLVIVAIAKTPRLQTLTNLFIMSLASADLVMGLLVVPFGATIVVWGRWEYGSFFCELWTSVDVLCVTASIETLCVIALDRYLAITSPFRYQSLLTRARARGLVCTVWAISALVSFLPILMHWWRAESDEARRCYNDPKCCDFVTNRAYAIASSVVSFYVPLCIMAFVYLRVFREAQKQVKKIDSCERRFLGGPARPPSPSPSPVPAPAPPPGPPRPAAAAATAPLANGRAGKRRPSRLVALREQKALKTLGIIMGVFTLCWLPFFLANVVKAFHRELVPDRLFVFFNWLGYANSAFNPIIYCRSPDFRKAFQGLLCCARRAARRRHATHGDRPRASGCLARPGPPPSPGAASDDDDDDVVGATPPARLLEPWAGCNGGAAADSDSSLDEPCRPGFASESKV

[4] = target: alpha1a adrenergic receptor (expressed in Pichia pastoris, membranes); remark: listed apart in the source
[5] = target: alpha2a adrenergic receptor (expressed in Pichia pastoris, membranes)
Chain of alpha2a adrenergic receptor (expressed in Pichia pastoris, membranes) (P08913 whole entry): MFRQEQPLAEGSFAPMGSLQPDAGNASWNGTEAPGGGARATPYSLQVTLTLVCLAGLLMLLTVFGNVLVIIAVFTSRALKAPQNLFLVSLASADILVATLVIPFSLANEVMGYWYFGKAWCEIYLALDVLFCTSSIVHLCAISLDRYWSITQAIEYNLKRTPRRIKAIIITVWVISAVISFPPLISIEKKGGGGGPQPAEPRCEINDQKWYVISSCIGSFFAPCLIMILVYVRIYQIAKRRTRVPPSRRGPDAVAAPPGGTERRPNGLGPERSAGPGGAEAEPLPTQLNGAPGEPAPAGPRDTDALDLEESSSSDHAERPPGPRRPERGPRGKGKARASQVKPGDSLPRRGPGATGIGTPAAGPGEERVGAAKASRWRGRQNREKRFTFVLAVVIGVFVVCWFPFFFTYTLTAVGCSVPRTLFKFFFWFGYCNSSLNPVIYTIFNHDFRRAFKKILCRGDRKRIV

[6] = target: alpha1a adrenergic receptor (expressed in Pichia pastoris, membranes); remark: listed apart in the source

Chain of alpha1a adrenergic receptor (expressed in Pichia pastoris, membranes) (P35348 whole entry): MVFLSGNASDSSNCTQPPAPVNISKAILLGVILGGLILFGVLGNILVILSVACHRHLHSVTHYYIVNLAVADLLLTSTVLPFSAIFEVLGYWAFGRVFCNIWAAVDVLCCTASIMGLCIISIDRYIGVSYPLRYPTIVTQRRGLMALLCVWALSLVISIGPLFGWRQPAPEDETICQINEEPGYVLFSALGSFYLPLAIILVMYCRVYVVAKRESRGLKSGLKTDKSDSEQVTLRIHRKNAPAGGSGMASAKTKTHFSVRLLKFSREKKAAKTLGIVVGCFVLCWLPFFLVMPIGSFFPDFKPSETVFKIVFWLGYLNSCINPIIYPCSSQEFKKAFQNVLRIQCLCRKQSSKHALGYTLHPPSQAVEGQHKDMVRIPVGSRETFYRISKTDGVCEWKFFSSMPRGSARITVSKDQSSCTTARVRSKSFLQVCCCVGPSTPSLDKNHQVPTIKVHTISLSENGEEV
Chain of alpha1d adrenergic receptor (expressed in Pichia pastoris, membranes) (P25100 whole entry): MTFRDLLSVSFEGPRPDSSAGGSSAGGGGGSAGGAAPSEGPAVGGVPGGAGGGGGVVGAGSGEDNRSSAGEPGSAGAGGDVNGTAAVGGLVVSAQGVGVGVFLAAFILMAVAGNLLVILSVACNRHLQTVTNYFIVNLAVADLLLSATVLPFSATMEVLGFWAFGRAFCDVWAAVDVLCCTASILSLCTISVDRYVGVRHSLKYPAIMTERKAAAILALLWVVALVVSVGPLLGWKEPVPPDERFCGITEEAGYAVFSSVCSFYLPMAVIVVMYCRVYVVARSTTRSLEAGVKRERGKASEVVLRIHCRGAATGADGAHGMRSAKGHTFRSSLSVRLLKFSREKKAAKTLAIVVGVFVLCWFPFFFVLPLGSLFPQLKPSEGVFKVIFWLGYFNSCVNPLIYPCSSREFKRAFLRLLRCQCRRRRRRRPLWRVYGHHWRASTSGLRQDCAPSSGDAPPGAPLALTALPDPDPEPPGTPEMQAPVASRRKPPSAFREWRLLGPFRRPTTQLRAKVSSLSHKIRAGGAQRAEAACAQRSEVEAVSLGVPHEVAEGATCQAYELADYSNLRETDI

Row | Substance | IC50 [1] [nM] | IC50 [2] [nM] | IC50 [3] [nM] | IC50 [4] [nM] | IC50 [5] [nM] | Kd [6] [nM]
1 | AdTx1 peptide | 0.5 | 9900 | > 50000 | 1.8 | > 50000 | –
2 | radiolabeled AdTx1 peptide (125I-AdTx1) | – | – | – | – | – | 0.8
